Measured values published in paper PMC4631608 (Journal of structural and functional genomics, 2015).

Molecular target: the molecule itself
Assay: SEC

B1: M. tuberculosis Rv1496 (natural protein)
chain: MMAASHDDDTVDGLATAVRGGDRAALPRAITLVESTRPDHREQAQQLLLRLLPDSGNAHRVGITGVPGVGKSTAIEALGMHLIERGHRVAVLAVDPSSTRTGGSILGDKTRMARLAVHPNAYIRPSPTSGTLGGVTRATRETVVLLEAAGFDVILIETVGVGQSEVAVANMVDTFVLLTLARTGDQLQGIKKGVLELADIVVVNKADGEHHKEARLAARELSAAIRLIYPREALWRPPVLTMSAVEGRGLAELWDTVERHRQVLTGAGEFDARRRDQQVDWTWQLVRDAVLDRVWSNPTVRKVRSELERRVRAGELTPALAAQQILEIANLTDR
With B1 the “stoichiometry N” value was 2.
